# Paper PMC11721464
# Biological target: Zika virus prM/E heterodimer of the immature virion (Zika virus strain MR-766)
# Experiment: cryo-EM structure; immature ZIKV MR-766 virions purified from NH4Cl-treated Vero E6 cells, neutral pH (TNE buffer, pH 7.4); icosahedral symmetry enforced, 8.3 Å map; homology model of prM/E (template SPOV PDB 6ZQI) fitted and refined in real space
substance,measurement,value
Zika virus prM/E heterodimer of the immature virion (complex),stoichiometry N,3
